This test concerns the target mouse recombinant His-calmodulin (mouse), P0DP26.

INLKALAALAKKIL (modifications not checked) [Mastoparan, P01514 1-14]: the equilibrium dissociation constant (Kd) stood at 1.2 nM.

The values above are taken from EP4036575A1.
